Biological target: Human Factor B (human) (UniProt P00751)
Test: cell-based or functional assay

Sequence of Human Factor B (human) (P00751 26-764 limits assumed): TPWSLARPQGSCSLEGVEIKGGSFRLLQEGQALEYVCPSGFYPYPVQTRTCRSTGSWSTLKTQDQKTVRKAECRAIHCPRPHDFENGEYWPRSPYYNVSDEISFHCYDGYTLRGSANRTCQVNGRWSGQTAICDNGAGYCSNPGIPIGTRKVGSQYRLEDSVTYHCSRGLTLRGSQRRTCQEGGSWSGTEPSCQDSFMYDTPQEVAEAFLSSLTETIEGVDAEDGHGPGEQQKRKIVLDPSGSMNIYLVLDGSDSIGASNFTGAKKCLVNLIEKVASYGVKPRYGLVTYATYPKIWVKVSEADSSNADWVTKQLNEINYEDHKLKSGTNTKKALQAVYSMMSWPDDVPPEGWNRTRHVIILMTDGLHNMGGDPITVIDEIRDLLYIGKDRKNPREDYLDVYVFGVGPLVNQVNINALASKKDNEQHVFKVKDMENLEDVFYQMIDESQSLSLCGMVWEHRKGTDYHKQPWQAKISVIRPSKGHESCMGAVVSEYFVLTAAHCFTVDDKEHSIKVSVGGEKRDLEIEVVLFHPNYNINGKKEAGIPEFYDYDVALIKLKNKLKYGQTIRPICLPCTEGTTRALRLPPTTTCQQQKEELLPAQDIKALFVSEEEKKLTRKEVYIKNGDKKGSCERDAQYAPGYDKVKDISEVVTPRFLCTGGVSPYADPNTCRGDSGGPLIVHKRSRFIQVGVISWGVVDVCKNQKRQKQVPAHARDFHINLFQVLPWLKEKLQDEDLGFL

| Binder | fB Cleavage EC50 [nM] |
| --- | --- |
| chymase C22S/P38Q/K40M/F41R/L99N/V138I/D175N/A190S/V213A/S218T/A226R (enzyme) IIGGTESKPHSRPYMAYLEIVTSNGQSMRCGGFLIRRNFVLTAAHCAGRSITVTLGAHNITEEEDTWQKLEVIKQFRHPKYNTSTNHHDIMLLKLKEKASLTLAVGTLPFPSQFNFVPPGRMCRIAGWGRTGVLKPGSDTLQEVKLRLMDPQACSHFRNFDHNLQLCVGNPRKTKSSFKGDSGGPLLCAGVAQGIASYGRTDAKPPRVFTRISHYRPWINQILQAN | 449 |
| chymase C22S/P38Q/K40A/F41R/L99Y/V138I/F173L/D175R/A190S/V213A/S218L/A226R (enzyme) IIGGTESKPHSRPYMAYLEIVTSNGQSARCGGFLIRRNFVLTAAHCAGRSITVTLGAHNITEEEDTWQKLEVIKQFRHPKYNTSTYHHDIMLLKLKEKASLTLAVGTLPFPSQFNFVPPGRMCRIAGWGRTGVLKPGSDTLQEVKLRLMDPQACSHLRRFDHNLQLCVGNPRKTKSSFKGDSGGPLLCAGVAQGIASYGRLDAKPPRVFTRISHYRPWINQILQAN | 511 |
| chymase C22S/P38Q/K40M/F41R/L99Q/V138I/F173Y/D175N/A190S/V213A/S218V/A226R (enzyme) IIGGTESKPHSRPYMAYLEIVTSNGQSMRCGGFLIRRNFVLTAAHCAGRSITVTLGAHNITEEEDTWQKLEVIKQFRHPKYNTSTQHHDIMLLKLKEKASLTLAVGTLPFPSQFNFVPPGRMCRIAGWGRTGVLKPGSDTLQEVKLRLMDPQACSHYRNFDHNLQLCVGNPRKTKSSFKGDSGGPLLCAGVAQGIASYGRVDAKPPRVFTRISHYRPWINQILQAN | 157 |
| chymase C22S/P38Q/K40M/F41K/L99Y/V138I/F173M/D175Y/A190S/V213A/S218V/A226R (enzyme) IIGGTESKPHSRPYMAYLEIVTSNGQSMKCGGFLIRRNFVLTAAHCAGRSITVTLGAHNITEEEDTWQKLEVIKQFRHPKYNTSTYHHDIMLLKLKEKASLTLAVGTLPFPSQFNFVPPGRMCRIAGWGRTGVLKPGSDTLQEVKLRLMDPQACSHMRYFDHNLQLCVGNPRKTKSSFKGDSGGPLLCAGVAQGIASYGRVDAKPPRVFTRISHYRPWINQILQAN | 448 |
| chymase C22S/P38Q/K40V/F41R/V138I/F173L/D175R/A190S/V213A/S218I/A226R (enzyme) IIGGTESKPHSRPYMAYLEIVTSNGQSVRCGGFLIRRNFVLTAAHCAGRSITVTLGAHNITEEEDTWQKLEVIKQFRHPKYNTSTLHHDIMLLKLKEKASLTLAVGTLPFPSQFNFVPPGRMCRIAGWGRTGVLKPGSDTLQEVKLRLMDPQACSHLRRFDHNLQLCVGNPRKTKSSFKGDSGGPLLCAGVAQGIASYGRIDAKPPRVFTRISHYRPWINQILQAN | 169 |
| chymase C22S/P38Q/K40L/F41R/V138I/F173L/D175H/A190S/V213A/S218V/A226R (enzyme) IIGGTESKPHSRPYMAYLEIVTSNGQSLRCGGFLIRRNFVLTAAHCAGRSITVTLGAHNITEEEDTWQKLEVIKQFRHPKYNTSTLHHDIMLLKLKEKASLTLAVGTLPFPSQFNFVPPGRMCRIAGWGRTGVLKPGSDTLQEVKLRLMDPQACSHLRHFDHNLQLCVGNPRKTKSSFKGDSGGPLLCAGVAQGIASYGRVDAKPPRVFTRISHYRPWINQILQAN | 314 |
| chymase C22S/P38Q/K40L/F41K/L99N/V138I/F173Y/D175S/A190S/V213A/S218I/A226R (enzyme) IIGGTESKPHSRPYMAYLEIVTSNGQSLKCGGFLIRRNFVLTAAHCAGRSITVTLGAHNITEEEDTWQKLEVIKQFRHPKYNTSTNHHDIMLLKLKEKASLTLAVGTLPFPSQFNFVPPGRMCRIAGWGRTGVLKPGSDTLQEVKLRLMDPQACSHYRSFDHNLQLCVGNPRKTKSSFKGDSGGPLLCAGVAQGIASYGRIDAKPPRVFTRISHYRPWINQILQAN | 144 |
| chymase C22S/P38Q/K40M/F41R/L99Y/V138I/F173L/D175S/A190S/V213A/S218V/A226R (enzyme) IIGGTESKPHSRPYMAYLEIVTSNGQSMRCGGFLIRRNFVLTAAHCAGRSITVTLGAHNITEEEDTWQKLEVIKQFRHPKYNTSTYHHDIMLLKLKEKASLTLAVGTLPFPSQFNFVPPGRMCRIAGWGRTGVLKPGSDTLQEVKLRLMDPQACSHLRSFDHNLQLCVGNPRKTKSSFKGDSGGPLLCAGVAQGIASYGRVDAKPPRVFTRISHYRPWINQILQAN | 814 |
| chymase C22S/P38Q/K40A/F41R/L99H/V138I/D175R/A190S/V213A/S218L/A226R (enzyme) IIGGTESKPHSRPYMAYLEIVTSNGQSARCGGFLIRRNFVLTAAHCAGRSITVTLGAHNITEEEDTWQKLEVIKQFRHPKYNTSTHHHDIMLLKLKEKASLTLAVGTLPFPSQFNFVPPGRMCRIAGWGRTGVLKPGSDTLQEVKLRLMDPQACSHFRRFDHNLQLCVGNPRKTKSSFKGDSGGPLLCAGVAQGIASYGRLDAKPPRVFTRISHYRPWINQILQAN | 191 |
| chymase C22S/P38Q/K40A/F41R/V138I/F173S/D175T/A190S/V213A/S218V/A226R (enzyme) IIGGTESKPHSRPYMAYLEIVTSNGQSARCGGFLIRRNFVLTAAHCAGRSITVTLGAHNITEEEDTWQKLEVIKQFRHPKYNTSTLHHDIMLLKLKEKASLTLAVGTLPFPSQFNFVPPGRMCRIAGWGRTGVLKPGSDTLQEVKLRLMDPQACSHSRTFDHNLQLCVGNPRKTKSSFKGDSGGPLLCAGVAQGIASYGRVDAKPPRVFTRISHYRPWINQILQAN | 1720 |
| chymase C22S/P38Q/K40L/F41R/L99Q/V138I/F173Y/D175N/A190S/V213A/S218V/A226R (enzyme) IIGGTESKPHSRPYMAYLEIVTSNGQSLRCGGFLIRRNFVLTAAHCAGRSITVTLGAHNITEEEDTWQKLEVIKQFRHPKYNTSTQHHDIMLLKLKEKASLTLAVGTLPFPSQFNFVPPGRMCRIAGWGRTGVLKPGSDTLQEVKLRLMDPQACSHYRNFDHNLQLCVGNPRKTKSSFKGDSGGPLLCAGVAQGIASYGRVDAKPPRVFTRISHYRPWINQILQAN | 102 |
| chymase C22S/P38Q/K40L/F41R/V138I/D175N/A190S/V213A/S218V/A226R (enzyme) IIGGTESKPHSRPYMAYLEIVTSNGQSLRCGGFLIRRNFVLTAAHCAGRSITVTLGAHNITEEEDTWQKLEVIKQFRHPKYNTSTLHHDIMLLKLKEKASLTLAVGTLPFPSQFNFVPPGRMCRIAGWGRTGVLKPGSDTLQEVKLRLMDPQACSHFRNFDHNLQLCVGNPRKTKSSFKGDSGGPLLCAGVAQGIASYGRVDAKPPRVFTRISHYRPWINQILQAN | 114 |
| chymase C22S/P38Q/K40M/F41H/V138I/F173Y/D175R/A190S/V213A/S218V/A226R (enzyme) IIGGTESKPHSRPYMAYLEIVTSNGQSMHCGGFLIRRNFVLTAAHCAGRSITVTLGAHNITEEEDTWQKLEVIKQFRHPKYNTSTLHHDIMLLKLKEKASLTLAVGTLPFPSQFNFVPPGRMCRIAGWGRTGVLKPGSDTLQEVKLRLMDPQACSHYRRFDHNLQLCVGNPRKTKSSFKGDSGGPLLCAGVAQGIASYGRVDAKPPRVFTRISHYRPWINQILQAN | 47.6 |
| chymase C22S/P38Q/K40M/F41H/L99N/V138I/F173Y/D175S/A190S/V213A/S218T/A226R (enzyme) IIGGTESKPHSRPYMAYLEIVTSNGQSMHCGGFLIRRNFVLTAAHCAGRSITVTLGAHNITEEEDTWQKLEVIKQFRHPKYNTSTNHHDIMLLKLKEKASLTLAVGTLPFPSQFNFVPPGRMCRIAGWGRTGVLKPGSDTLQEVKLRLMDPQACSHYRSFDHNLQLCVGNPRKTKSSFKGDSGGPLLCAGVAQGIASYGRTDAKPPRVFTRISHYRPWINQILQAN | 561 |

Results, then the binder that gave them:

| fB Cleavage EC50 [nM] | Binder |
| --- | --- |
| 262 | chymase C22S/P38Q/K40A/F41R/V138I/D175R/A190S/V213A/S218T/A226R (enzyme) IIGGTESKPHSRPYMAYLEIVTSNGQSARCGGFLIRRNFVLTAAHCAGRSITVTLGAHNITEEEDTWQKLEVIKQFRHPKYNTSTLHHDIMLLKLKEKASLTLAVGTLPFPSQFNFVPPGRMCRIAGWGRTGVLKPGSDTLQEVKLRLMDPQACSHFRRFDHNLQLCVGNPRKTKSSFKGDSGGPLLCAGVAQGIASYGRTDAKPPRVFTRISHYRPWINQILQAN |
| 406 | chymase C22S/P38Q/K40A/F41R/L99H/V138I/F173Y/A190S/V213A/S218V/A226R (enzyme) IIGGTESKPHSRPYMAYLEIVTSNGQSARCGGFLIRRNFVLTAAHCAGRSITVTLGAHNITEEEDTWQKLEVIKQFRHPKYNTSTHHHDIMLLKLKEKASLTLAVGTLPFPSQFNFVPPGRMCRIAGWGRTGVLKPGSDTLQEVKLRLMDPQACSHYRDFDHNLQLCVGNPRKTKSSFKGDSGGPLLCAGVAQGIASYGRVDAKPPRVFTRISHYRPWINQILQAN |
| 482 | chymase C22S/P38Q/K40M/F41R/V138I/F173L/D175N/A190S/V213A/S218L/A226R (enzyme) IIGGTESKPHSRPYMAYLEIVTSNGQSMRCGGFLIRRNFVLTAAHCAGRSITVTLGAHNITEEEDTWQKLEVIKQFRHPKYNTSTLHHDIMLLKLKEKASLTLAVGTLPFPSQFNFVPPGRMCRIAGWGRTGVLKPGSDTLQEVKLRLMDPQACSHLRNFDHNLQLCVGNPRKTKSSFKGDSGGPLLCAGVAQGIASYGRLDAKPPRVFTRISHYRPWINQILQAN |
| 57.6 | chymase C22S/P38Q/K40L/F41R/L99N/V138I/F173Y/D175T/A190S/V213A/S218V/A226R (enzyme) IIGGTESKPHSRPYMAYLEIVTSNGQSLRCGGFLIRRNFVLTAAHCAGRSITVTLGAHNITEEEDTWQKLEVIKQFRHPKYNTSTNHHDIMLLKLKEKASLTLAVGTLPFPSQFNFVPPGRMCRIAGWGRTGVLKPGSDTLQEVKLRLMDPQACSHYRTFDHNLQLCVGNPRKTKSSFKGDSGGPLLCAGVAQGIASYGRVDAKPPRVFTRISHYRPWINQILQAN |
| 724 | chymase C22S/P38Q/K40M/F41R/L99Q/V138I/F173Y/D175A/A190S/V213A/S218T/A226R (enzyme) IIGGTESKPHSRPYMAYLEIVTSNGQSMRCGGFLIRRNFVLTAAHCAGRSITVTLGAHNITEEEDTWQKLEVIKQFRHPKYNTSTQHHDIMLLKLKEKASLTLAVGTLPFPSQFNFVPPGRMCRIAGWGRTGVLKPGSDTLQEVKLRLMDPQACSHYRAFDHNLQLCVGNPRKTKSSFKGDSGGPLLCAGVAQGIASYGRTDAKPPRVFTRISHYRPWINQILQAN |
| 870 | chymase C22S/P38Q/K40M/F41R/L99F/V138I/F173L/D175N/A190S/V213A/A226R (enzyme) IIGGTESKPHSRPYMAYLEIVTSNGQSMRCGGFLIRRNFVLTAAHCAGRSITVTLGAHNITEEEDTWQKLEVIKQFRHPKYNTSTFHHDIMLLKLKEKASLTLAVGTLPFPSQFNFVPPGRMCRIAGWGRTGVLKPGSDTLQEVKLRLMDPQACSHLRNFDHNLQLCVGNPRKTKSSFKGDSGGPLLCAGVAQGIASYGRSDAKPPRVFTRISHYRPWINQILQAN |
| 456 | chymase C22S/P38Q/K40L/F41R/V138I/F173M/D175N/A190S/V213A/S218L/A226R (enzyme) IIGGTESKPHSRPYMAYLEIVTSNGQSLRCGGFLIRRNFVLTAAHCAGRSITVTLGAHNITEEEDTWQKLEVIKQFRHPKYNTSTLHHDIMLLKLKEKASLTLAVGTLPFPSQFNFVPPGRMCRIAGWGRTGVLKPGSDTLQEVKLRLMDPQACSHMRNFDHNLQLCVGNPRKTKSSFKGDSGGPLLCAGVAQGIASYGRLDAKPPRVFTRISHYRPWINQILQAN |
| 103 | chymase C22S/P38Q/K40M/F41R/L99Y/V138I/F173Y/D175S/A190S/V213A/S218V/A226R (enzyme) IIGGTESKPHSRPYMAYLEIVTSNGQSMRCGGFLIRRNFVLTAAHCAGRSITVTLGAHNITEEEDTWQKLEVIKQFRHPKYNTSTYHHDIMLLKLKEKASLTLAVGTLPFPSQFNFVPPGRMCRIAGWGRTGVLKPGSDTLQEVKLRLMDPQACSHYRSFDHNLQLCVGNPRKTKSSFKGDSGGPLLCAGVAQGIASYGRVDAKPPRVFTRISHYRPWINQILQAN |
